The results in this text go back to paper PMC12075633.

Experiment [1] deals with ECF module (EcfA_K122C, EcfA', EcfT) of the C-sensor, cysteine-less background, fluorophore-labelled (Lactobacillus delbrueckii). Description: FRET or BRET; single-molecule FRET, TIRF; labelled complex in immobilised liposomes (protein to lipid 1:10.000) with 10 mM Mg-ATP outside (or on both sides), with or without 10 µM vitamin B12 in the lumen; 50 mM KPi pH 7.5, 150 mM NaCl; 90 s recordings, 200 ms frames. (BRET reads energy transfer from a luciferase to a nearby fluorophore.)

The target is the same in experiment [2]. Nature of the experiment: FRET or BRET; single-molecule FRET, TIRF; labelled complex reconstituted in liposomes (E. coli polar lipids:PC:DOPE-biotin, protein to lipid 1:10.000) immobilised by biotin-neutravidin; 50 mM KPi pH 7.5, 150 mM NaCl; apo, also with Mg-AMP-PNP, Mg-ADP or 10 µM vitamin B12 alone; 90 s recordings, 200 ms frames.

Values joined by “and” are separate entries in the source; they are usually repeats but may differ in a detail not shown here. Identical values can stand only once.

Turning to “CbrT_A182C (S-component of the C-sensor, cysteine-less background, fluorophore-labelled) (natural protein)”, in experiment [1], the half-life to the first dissociation event after ATP addition (ATPout + B12in) came out at 7 s; the half-life to the first dissociation event after ATP addition (ATPout) is 10 s; the mean dwell time of the associated state (10 mM Mg-ATP outside; with or without vitamin B12, not told which) was 7.9 s and 8.7 s; the mean dwell time of the dissociated state (10 mM Mg-ATP outside, with and without vitamin B12) stood at 20 s. In experiment [1], this substance displayed a percent of dynamic traces (association/dissociation transitions), 10 mM Mg-ATP outside of 22.1%; a percent of dynamic traces (association/dissociation transitions), ATP outside and 10 µM vitamin B12 in the lumen of 18.7%; a percent of dynamic traces (association/dissociation transitions), Mg-ATP on both sides of the membrane of 13.2%; a percent of traces static at the low-FRET value 0.08 (dissociated), 10 mM Mg-ATP outside of 19.6%. For the same substance, the percent of recorded traces with a dissociation (apo and AMP-PNP conditions) in experiment [2] amounted to 1%.
